Experimental data reported in US20040110170A1, “Cloning and characterization of calcitonin gene related peptide receptors” (priority 2002, published 2004).
pIC50: −log10 of the molar value. Ends that are not written are not given here.

Tests used:
[1] = tested on: vector control transfected HEK 293 cells; conditions: cited from earlier work
[2] = biological target: JPr-CGRP receptor (rat CGRP receptor, JPr-CGRP-R) (rat) (UniProt O89039); test: Radioligand binding inhibition; unlabelled CGRP against 50 pM 125I-CGRP on stably transfected NIH/3T3 cells
Sequence of JPr-CGRP receptor (rat CGRP receptor, JPr-CGRP-R) (rat) (O89039 whole entry): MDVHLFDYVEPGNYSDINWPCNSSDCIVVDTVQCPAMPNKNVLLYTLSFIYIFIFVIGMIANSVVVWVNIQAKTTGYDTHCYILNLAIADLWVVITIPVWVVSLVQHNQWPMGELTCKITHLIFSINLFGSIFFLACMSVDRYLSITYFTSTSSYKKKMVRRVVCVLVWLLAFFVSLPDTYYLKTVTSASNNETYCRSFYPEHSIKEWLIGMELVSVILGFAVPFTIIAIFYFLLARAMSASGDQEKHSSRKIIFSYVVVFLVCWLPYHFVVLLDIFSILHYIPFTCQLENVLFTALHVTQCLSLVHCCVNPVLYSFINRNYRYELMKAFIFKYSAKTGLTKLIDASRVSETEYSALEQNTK

[3] = biological target: Skb-CGRP receptor (previously reported human CGRP type 1 receptor, Skb-CGRP-R) (human) (UniProt Q16602); test: as above
Sequence of Skb-CGRP receptor (previously reported human CGRP type 1 receptor, Skb-CGRP-R) (human) (Q16602 23-461): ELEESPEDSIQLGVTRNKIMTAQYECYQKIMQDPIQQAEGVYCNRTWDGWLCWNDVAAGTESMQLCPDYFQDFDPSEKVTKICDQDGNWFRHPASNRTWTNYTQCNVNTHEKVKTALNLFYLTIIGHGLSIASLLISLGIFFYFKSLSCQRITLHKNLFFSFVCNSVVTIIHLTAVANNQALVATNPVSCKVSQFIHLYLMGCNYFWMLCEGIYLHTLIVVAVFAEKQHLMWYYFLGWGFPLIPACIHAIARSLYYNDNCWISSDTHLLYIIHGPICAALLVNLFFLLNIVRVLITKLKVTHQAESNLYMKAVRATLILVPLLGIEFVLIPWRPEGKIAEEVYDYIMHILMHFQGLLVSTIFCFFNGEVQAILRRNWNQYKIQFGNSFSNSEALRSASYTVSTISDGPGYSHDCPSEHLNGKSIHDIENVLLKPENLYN

JPr-CGRP receptor = biological target: T1, JPr-CGRP receptor (Rattus norvegicus, UniProt O89039); test: Adenylate Cyclase Stimulation assay (cAMP), NIH/3T3 cells stably expressing JPr-CGRP receptor; format: cell-based; conditions: assay not specified
T1 construct: expressed in transfected cells; pCDL-Srα vector)
T1 sequence (O89039 whole entry): as the sequence (O89039 whole entry) above
Method: The cells were washed with 1 ml of a nutrient deficient DMEM solution (Gibco-BRL, Gaithersburg, Md.) to remove excess radioisotope and incubated for 10 minutes (37° Celsius). […] Peptide was added in 5 μL aliquots to 21 of the 24 wells with three receiving no peptide to serve as a baseline for stimulation. The remaining 21 wells were incubated at 37° Celsius with increasing concentrations of the indicated peptide and the response was measured.

Row | Substance | response of the JPr-CGRP receptor to related peptides (JPr-CGRP receptor) | other results
1 | human Calcitonin: human Calcitonin, has cross reactivity with the CGRP receptor (CGNLSTCMLGTYTQDFNKFHTFPQTAIGVGAP; not fully specified (C-terminus, bridges); ends and bridges not checked; UniProt P01258 85-116, looked up) |  | cAMP accumulation as % of the maximum cAMP induced by CGRP in Skb-CGRP-R transfected cells [1]: 75%
2 | Calcitonin Gene Related Peptide (CGRP) |  | pIC50 [2]: 10.40; pIC50 [3]: 9.30
3 | Amylin: peptide related to CGRP, tested on the receptor (KCNTATCATQRLANFLVHSSNNFGAILSSTNVGSNTY; not fully specified (C-terminus, bridges); cysteine pairing not given here; UniProt P10997 34-70, looked up) | shows response | 
4 | Calcitonin | shows response | 
5 | Adrenomedullin: peptide related to CGRP | shows response | 
